Key:
IL-6 = IL-6 (Homo sapiens, UniProt P05231); test: Inhibition of IL-6/sIL-6R/IL-1β induced SAA production from A498 cell line, SAA ELISA; format: cell-based; conditions: A498 cells; IL-6 (100 ng/ml), sIL-6R (200 ng/ml) and IL-1b (1 ng/ml) pre-incubated with serial dilutions of antibody; dose dependent (FIG. 2A & B)
Excerpt: (§1) A-498, a renal carcinoma cell line was purchased from ATCC (Rockville, Md.). Cells were maintained according to ATCC instructions in log phase of cell growth in DMEM/10% heat-inactivated FBS, 1% L-Gut, 1% NEAA and 1% NaPyr. CNTO 328, an anti-human IL-6 antibody developed at Centocor and disclosed in U.S. patent application Ser. No. 10/280,716, hereby incorporated by reference into the present application, was used at several concentrations in the assay. F 105, human anti-gp 120 IgGl, also developed at Centocor, was used as a negative control antibody. Anti-SAA monoclonal antibody (clone REU-86.2, Research Diagnostics, Inc.) was used for SAA immunostaining.
(§2) A498 cells were cultured for 24 hrs in 96-well flat bottom tissue culture plates at a concentration of 6×10^4 cells/100 ul in DMEM complete media at 37 °C./5% CO2. Cells were washed with PBS then starved for 1 hr in 100 ul of serum free DMEM media at room temp. A combination of IL-6 (100 ng/ml), sIL-6R (200 ng /ml) and IL-1b (1 ng/ml) mixture was incubated with serial dilutions of CNTO 328 or F105 control antibody for 30 minutes at room temperature. 100 ul of the mixture was added to the cells and incubated at 37 °C./5% CO2 overnight.
(§3) The cell culture supernatant was assayed immediately for hSAA production using Biosource human SAA kit (Camrillo, Calif.) following manufacturer's instructions.

A498 cells = test: Induction of SAA production in A498 renal carcinoma cells by cytokines, SAA ELISA of culture supernatant; format: cell-based; conditions: human renal tumor A498 cells stimulated overnight with the cytokine(s); SAA in culture supernatant by ELISA (FIG. 2A)
Excerpt: as §1, §2, §3

Sequence of IL-6 (P05231 30-212): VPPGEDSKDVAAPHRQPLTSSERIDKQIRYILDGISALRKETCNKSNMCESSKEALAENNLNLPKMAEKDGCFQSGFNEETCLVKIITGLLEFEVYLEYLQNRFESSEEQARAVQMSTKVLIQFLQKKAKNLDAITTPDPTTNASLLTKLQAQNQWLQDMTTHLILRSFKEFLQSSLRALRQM

CNTO 328: an anti-human IL-6 antibody developed at Centocor and disclosed in U.S. patent application Ser. No. 10/280,716
inhibition of IL-6/sIL-6R/IL-1β induced SAA production (IL-6): completely inhibited

IL-1b: cytokine used to stimulate A498 cells
SAA produced in culture (A498 cells): < 100 ng/mL
